# Measurements published in US20120269801A1.
# Columns and labels:
# [1] = target: CD59 in membrane extract of lysed CD59-expressing red blood cells (UniProt P13987); experiment: phage ELISA, membrane extract of CD59(+) red cells coated, anti-M13-HRP; helper phage control
# [2] = target: CD59 (target protein) (human) (UniProt P13987); experiment: phage ELISA, CD59 coated directly, anti-M13-HRP; helper phage control
substance,measurement,setting,value
M13KO7 helper phage,"OD490 (Ag+ phage+, CD59(+)red cell)",[1],0.046 OD
same,OD490 (Ag+ phage+),[2],0.046 OD
